Measurements as given in patent US20250368740A1 (SHENZHEN BAISHITONG TECHNOLOGY DEVELOPMENT, published 2025).
Values joined by “and” are separate entries in the source; they are usually repeats but may differ in a detail not shown here. Identical values can stand only once.

How the values were obtained:
[1] = molecular target: T1, recombinant human CD276-ECD protein (human, UniProt Q5ZPR3 29-255); experiment: indirect ELISA, plate coated with human CD276-ECD
T1 construct: Purchased from Acro BIOSYSTEMS; Used native (ELISA) and reduced and denatured (Western blot); also called B7-H3
T1 sequence: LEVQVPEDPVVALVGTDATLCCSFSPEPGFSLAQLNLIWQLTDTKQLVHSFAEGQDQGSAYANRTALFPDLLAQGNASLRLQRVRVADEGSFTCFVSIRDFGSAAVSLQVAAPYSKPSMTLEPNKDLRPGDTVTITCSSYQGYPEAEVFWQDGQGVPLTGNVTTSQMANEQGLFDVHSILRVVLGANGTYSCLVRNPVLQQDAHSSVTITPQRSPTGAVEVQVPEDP

[2] = molecular target: T2, biotinylated human CD122/132 (human, UniProt P14784 27-239; P31785 23-254, limits assumed, biotinylated (site not stated)); experiment: sandwich ELISA: antibody on coated human CD276-ECD, biotinylated CD122/132 detected with SA-HRP
T2 construct: Bought heterodimeric reagent; also called CD122/CD132
T2 sequence (looked up) 1: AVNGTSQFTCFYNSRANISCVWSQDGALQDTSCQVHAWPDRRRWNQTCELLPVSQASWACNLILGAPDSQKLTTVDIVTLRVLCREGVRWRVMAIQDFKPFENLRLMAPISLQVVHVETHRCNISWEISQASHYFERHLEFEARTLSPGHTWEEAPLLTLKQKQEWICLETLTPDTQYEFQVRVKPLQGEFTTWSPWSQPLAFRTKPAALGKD
T2 sequence (looked up) 2: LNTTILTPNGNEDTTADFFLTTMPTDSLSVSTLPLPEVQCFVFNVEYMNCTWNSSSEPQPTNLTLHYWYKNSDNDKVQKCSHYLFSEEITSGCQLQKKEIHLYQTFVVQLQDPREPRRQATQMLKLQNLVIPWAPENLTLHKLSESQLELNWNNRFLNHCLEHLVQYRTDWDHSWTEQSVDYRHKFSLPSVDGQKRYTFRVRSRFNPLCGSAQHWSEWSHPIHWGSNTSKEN
Description: The method was as follows: The plates were pre-coated with human CD276-ECD protein diluted to 2 μg/mL in the coating solution (50 mM carbonate coating buffer, pH 9.6) and incubated at 4° C. overnight. The plates were then blocked with 5% skim milk powder at 37° C. for 2 hours. Afterward, the plates were washed 3 times with PBST, and the to-be-tested antibody, diluted in 1% BSA-PBST at various gradients, was added to the blocked plates at 100 μL per well. The plates were incubated at 37° C. for 1 hour. […] Following 3 additional washes with PBST, diluted HRP-conjugated streptavidin (SA) (purchased from Pierce) was added, and the plates were incubated at 37° C. for 30 minutes. After 3 more washes with PBST, residual droplets were removed by blotting on absorbent paper. Then, 100 μL of TMB substrate (purchased from KPL) was added to each well, and the plates were incubated at room temperature (20±5° C.) in the dark for 5 minutes.
As a control, hu147 could bind to CD276 (as shown in Embodiment 8), but not CD122/CD132.

EC50 [1]: 0.0067 µg/mL and 0.04 nM
binding result [2]: no binding
B1: humanized antibody hu147 (antibody)
heavy: not shown
light: EIVMTQSPPTLSLSPGERVTLSCRASENVGTYVSWYQQKPGQAPRLLIYGASNRYTGIPARFSGSGSGTDFTLTISSLQPEDFAVYYCGQRYSYPFTFGGGTKLEIKRTVAAPSVFIFPPSDEQLKSGTASVVCLLNNFYPREAKVQWKVDNALQSGNSQESVTEQDSKDSTYSLSSTLTLSKADYEKHKVYACEVTHQGLSSPVTKSFNRGEC
notes: Human IgG1 / kappa; also called hul47
